Results on three molecules are retold here after patent US20190241662A1 (ADAGENE, published 2019).

The target in experiment [1] is T1, human B7H3 on HEK293F cells (human, UniProt Q5ZPR3 29-534).
T1 construct: whole, on cells
T1 sequence (looked up): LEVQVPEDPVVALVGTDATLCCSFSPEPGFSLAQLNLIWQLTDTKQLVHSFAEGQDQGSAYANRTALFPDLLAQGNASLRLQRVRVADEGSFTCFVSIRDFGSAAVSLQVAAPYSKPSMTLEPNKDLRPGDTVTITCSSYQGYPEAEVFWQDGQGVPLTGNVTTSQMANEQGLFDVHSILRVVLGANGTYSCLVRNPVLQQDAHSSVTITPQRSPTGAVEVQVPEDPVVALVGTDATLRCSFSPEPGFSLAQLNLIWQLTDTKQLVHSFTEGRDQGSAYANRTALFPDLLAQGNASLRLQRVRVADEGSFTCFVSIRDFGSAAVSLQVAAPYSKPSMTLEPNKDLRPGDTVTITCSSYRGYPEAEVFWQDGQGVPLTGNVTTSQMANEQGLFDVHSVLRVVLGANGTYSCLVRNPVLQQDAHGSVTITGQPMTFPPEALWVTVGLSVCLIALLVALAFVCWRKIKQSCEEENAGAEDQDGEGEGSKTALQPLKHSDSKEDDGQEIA
As to the kind of experiment: flow cytometry, transfected HEK293F cells, 100 nM antibody [Cont.]. The method, then: (§1) Antibody selectivity was next examined. Human CTLA4, PD1, LAG3, Tim3, B7H3, CD95, TNFR1, OX40, CD40, PD-L1, BLTA, VISTA, PDL2, ICOS and B7H4 were transiently overexpressed on the surface of HEK293F cells. Transfected cells were washed in pre-chilled 1×PBSA buffer (1.76 mM KH2PO4, 10.14 mM Na2HPO4.12H2O, 2.68 mM KCl, 136.89 mM NaCl and 1% BSA), then incubated with 100 nM test antibodies for 1 hour on ice. Cells were washed once with staining buffer, and Alexa Fluor® 647 conjugated mouse anti-human FC antibodies were added and incubated for 30 minutes on ice, protected from light. Samples were washed once with staining buffer prior to analysis by flow cytometry.
Background: A flow cytometer gives signals particle by particle.

Experiment [2] concerns the target T2, full-length mouse CTLA4 expressed on HEK293F cells (mouse, UniProt P09793 36-223).
T2 construct: whole, on cells
Nature of the experiment: flow cytometry, transfected HEK293F cells, antibody concentration not printed [Cont.]. The method, then:
(§2) The affinities of the antibodies were also assessed against human and mouse CTLA4 transiently expressed on the surface of HEK293F cells (FIG. 2). Briefly, HEK293F cells were transfected with a plasmid expressing full-length human, monkey or mouse CTLA4 from a bicistronic IRES vector also encoding EGFP, and EGFP expression was used to identify the transfected cells. After 48 hours, the mammalian cell suspension (2×10⁵/well) was transferred to an Eppendorf tube, centrifuged, the supernatant was discarded, the cells were resuspended with 1 mL PBSA (to a density is 4×10⁶ cells/mL), and added to a 96 well plate. […] The cells were then washed once prior to analysis by flow cytometry (Beckman® CytoFlex).

The target in experiment [3] is T3, full-length human CTLA4 expressed on cells (human, UniProt P16410 36-223).
T3 construct: whole, on cells; also called HEK293F/hCTLA-4 cells; HEK293F/hCTLA4 cells
T3 sequence (looked up): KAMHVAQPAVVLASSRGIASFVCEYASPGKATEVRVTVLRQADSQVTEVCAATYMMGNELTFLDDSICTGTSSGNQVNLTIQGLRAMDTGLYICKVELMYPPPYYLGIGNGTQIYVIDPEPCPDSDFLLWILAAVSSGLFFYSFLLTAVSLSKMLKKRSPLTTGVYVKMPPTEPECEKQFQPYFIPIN
The description is as above. The method, then:
as §2

Experiment [4] concerns the target T4, human CD95 on HEK293F cells (human, UniProt P25445 26-335).
T4 construct: whole, on cells
T4 sequence (looked up): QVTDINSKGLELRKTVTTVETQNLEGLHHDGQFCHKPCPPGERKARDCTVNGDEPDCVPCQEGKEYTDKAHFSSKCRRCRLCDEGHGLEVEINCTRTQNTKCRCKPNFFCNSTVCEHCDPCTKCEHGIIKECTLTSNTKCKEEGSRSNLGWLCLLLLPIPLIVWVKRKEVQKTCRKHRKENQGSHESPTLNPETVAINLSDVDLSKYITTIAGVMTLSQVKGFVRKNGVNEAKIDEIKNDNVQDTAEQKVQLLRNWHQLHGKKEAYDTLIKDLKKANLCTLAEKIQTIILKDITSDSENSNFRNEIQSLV
Nature of the experiment: flow cytometry, transfected HEK293F cells. The method, then: as §1

For experiment [5], the target named is T5, human OX40 on HEK293F cells (human, UniProt P43489 29-277).
T5 construct: whole, on cells
T5 sequence (looked up): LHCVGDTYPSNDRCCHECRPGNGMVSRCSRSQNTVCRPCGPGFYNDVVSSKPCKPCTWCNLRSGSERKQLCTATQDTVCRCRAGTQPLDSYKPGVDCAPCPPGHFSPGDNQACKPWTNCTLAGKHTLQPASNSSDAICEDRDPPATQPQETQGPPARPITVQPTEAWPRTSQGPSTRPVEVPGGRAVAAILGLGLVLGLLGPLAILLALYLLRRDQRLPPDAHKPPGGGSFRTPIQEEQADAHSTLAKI
As to the kind of experiment: flow cytometry, transfected HEK293F cells. The method, then: as §1

For experiment [6], the target named is T1, human B7H3 on HEK293F cells. Nature of the experiment: flow cytometry, transfected HEK293F cells. The method, then: as §1
Experiment [7] addresses T6, human Tim3 on HEK293F cells (human, UniProt Q8TDQ0 22-301).
T6 construct: whole, on cells
T6 sequence (looked up): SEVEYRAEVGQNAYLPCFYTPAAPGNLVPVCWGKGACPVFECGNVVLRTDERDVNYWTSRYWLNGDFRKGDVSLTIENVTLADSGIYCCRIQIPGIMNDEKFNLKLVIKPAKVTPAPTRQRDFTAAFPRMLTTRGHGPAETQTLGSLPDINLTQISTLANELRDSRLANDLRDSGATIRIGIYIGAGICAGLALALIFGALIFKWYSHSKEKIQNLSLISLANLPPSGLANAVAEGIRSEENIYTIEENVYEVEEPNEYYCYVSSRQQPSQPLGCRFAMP
As to the kind of experiment: flow cytometry, transfected HEK293F cells. The method, then: as §1

B1: TY21687 (antibody, V domains shown)
VH: EVQLVESGGGLVQPGGSLRLSCAASGFTFSGYAIHWVRQAPGKGLEWIGIISPSGGGTKYAQKFQGRVTISRDNSKNTLYLQLNSLRAEDTAVYYCARHPFAYWGQGTLVTVSS
VL: DIQLTQSPSSLSASVGDRVTITCRASQSVDFYGISFLDWYQQKPGKAPKLLIYDASNRATGIPSRFSGSGSGTDFTLTISSLQPEDFATYYCQQYVSSPPEYTFGQGTKVEIK
notes: human IgG1 (hIgG1) from Fab hit B15700
Consider B1, for which the “% of cells in upper right quadrant (Q2)” value in experiment [1] was found to be 1.29%; in experiment [2], 33.4; in experiment [3], 50.4. The entries for the “Mean” value in experiment [2] and in experiment [3] were 633000 and 433000, respectively.

B2: TY21585 (antibody, V domains shown)
VH: EVQLVESGGGLVQPGGSLRLSCAASGFTFSDYAIHWVRQAPGKGLEWIGIISPSSGSTNYAQKFQGRVTISRDNSKNTLYLQLNSLRAEDTAVYYCARDIHSGSSGYYYGFDVWGQGTLVTVSS
VL: DIQLTQSPSSLSASVGDRVTITCRASESVDFFGISFLAWYQQKPGKAPKLLIYDASNRATGIPSRFSGSGSGTDFTLTISSLQPEDFATYYCQHYTSSPPVYTFGQGTKVEIK
notes: human IgG1 (hIgG1) from Fab hit B15709
In the case of B2, the binding result in experiment [4] and in experiment [5] was “no binding (tested: 100 nM)” throughout.

B3: TY21691 (antibody, V domains shown)
VH: EVQLVESGGGLVQPGGSLRLSCAASGFTFSDYAIHWVRQAPGKGLEWIGIISPSGGSTKYAQKFQGRVTISRDNSKNTLYLQLNSLRAEDTAVYYCARLGYGYFDVWGQGTLVTVSS
VL: DIQLTQSPSSLSASVGDRVTITCRASQSVDFYGISFLHWYQQKPGKAPKLLIYDASSLESGVPSRFSGSGSGTDFTLTISSLQPEDFATYYCVQALQLPLTFGQGTKVEIK
notes: human IgG1 (hIgG1) from Fab hit B15736
B3: the binding result in experiment [6] and in experiment [7] was “no binding (tested: 100 nM)” throughout.
